Assay results: US20240092919A1 (Ablynx, published 2024)
Positions count from the first letter of the chain named.

T1: Cynomolgus TCR(AEA41865/AEA41866)-zipper protein (cynomolgus monkey)
T1 construct: also called cyTCR-zipper protein; cynoTCR zipper
T1 TCR alpha: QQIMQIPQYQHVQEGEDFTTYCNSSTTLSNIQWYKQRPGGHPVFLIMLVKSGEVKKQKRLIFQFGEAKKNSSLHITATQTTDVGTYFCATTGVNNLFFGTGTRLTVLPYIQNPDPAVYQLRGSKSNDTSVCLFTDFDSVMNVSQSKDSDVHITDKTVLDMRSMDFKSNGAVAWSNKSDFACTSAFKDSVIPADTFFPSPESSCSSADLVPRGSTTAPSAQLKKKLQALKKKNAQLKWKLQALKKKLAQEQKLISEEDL
T1 TCR beta: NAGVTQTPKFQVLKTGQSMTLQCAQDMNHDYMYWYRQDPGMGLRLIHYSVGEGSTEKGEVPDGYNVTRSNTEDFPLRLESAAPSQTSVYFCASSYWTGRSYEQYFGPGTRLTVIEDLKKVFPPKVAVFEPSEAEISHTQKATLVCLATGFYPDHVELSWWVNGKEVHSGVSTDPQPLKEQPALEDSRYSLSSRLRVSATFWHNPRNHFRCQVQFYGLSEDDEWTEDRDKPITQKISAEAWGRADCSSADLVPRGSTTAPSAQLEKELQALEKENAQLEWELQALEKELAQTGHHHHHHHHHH

B1: T017000354 (VHH)
VHH: EVQLVESGGGVVQPGGSLRLSCVASGAVHKINFYGWYRQAPGKEREKVAHISIGDQTDYADSAKGRFTISRDESKNMVYLQMNSLRPEDTALYFCRAMSRIWPYDYWGQGTLVTVSS
B2: T017000355 (VHH)
VHH: B1 VHH with G26W, A27D, K30Q, I31L
B3: T017000356 (VHH)
VHH: B1 VHH with A27S, I31L
B4: T017000357 (VHH)
VHH: B1 VHH with A27Y, K30Q, I31L
B5: T017000359 (VHH)
VHH: B1 VHH with G26W, A27D, K30Q, M98F, R100K, W102Y
B6: T017000360 (VHH)
VHH: B1 VHH with G26W, A27S, K30Q, I31L, R100K, W102Y, Y106W
B7: T017000361 (VHH)
VHH: B1 VHH with A27S, Y34L
B8: T017000362 (VHH)
VHH: B1 VHH with G26Y, A27D, R100K
B9: T017000363 (VHH)
VHH: B1 VHH with A27S, W102Y
B10: T017000364 (VHH)
VHH: B1 VHH with K30Q, Y34L
B11: T017000365 (VHH)
VHH: B1 VHH with I31L, Y34L, Y106W
B12: T017000367 (VHH)
VHH: B1 VHH with A27Y, Y34L
B13: T017000368 (VHH)
VHH: B1 VHH with G26W, A27D, K30Q, W102Y
B14: T017000369 (VHH)
VHH: B1 VHH with A27S, I31L, Y106W
B15: T017000370 (VHH)
VHH: B1 VHH with K30Q
B16: T017000371 (VHH)
VHH: B1 VHH with A27Y
B17: T017000372 (VHH)
VHH: B1 VHH with A27Y, W102Y
B18: T017000373 (VHH)
VHH: B1 VHH with A27S, I31L, Y34L
B19: T017000374 (VHH)
VHH: B1 VHH with G26Y, A27D, K30Q, R100K
B20: T017000377 (VHH)
VHH: B1 VHH with G26W, A27D, W102Y
B21: T017000378 (VHH)
VHH: B1 VHH with G26W, A27D, R100K
B22: T017000379 (VHH)
VHH: B1 VHH with G26W, A27D, K30Q, R100K
B23: T017000381 (VHH)
VHH: B1 VHH with Y34L, W102Y
B24: T017000382 (VHH)
VHH: B1 VHH with A27S, W102Y, Y106W
B25: T017000384 (VHH)
VHH: B1 VHH with K30Q, I31L
B26: T017000386 (VHH)
VHH: B1 VHH with A27S, I31L, Y34L, M98F, Y106W
B27: T017000391 (VHH)
VHH: B1 VHH with W102Y
B28: T017000397 (VHH)
VHH: B1 VHH with A27S, K30Q, I31L, Y34L
B29: T017000398 (VHH)
VHH: B1 VHH with G26Y, A27D, K30Q
B30: T017000401 (VHH)
VHH: B1 VHH with A27S, Y106W
B31: T017000403 (VHH)
VHH: B1 VHH with G26W, A27D, K30Q, Y34L
B32: T017000406 (VHH)
VHH: B1 VHH with A27Y, K30Q
B33: T017000408 (VHH)
VHH: B1 VHH with A27S
B34: T017000410 (VHH)
VHH: B1 VHH with A27Y, I31L, M98F, Y106W
B35: T017000411 (VHH)
VHH: B1 VHH with G26W, A27D
B36: T017000413 (VHH)
VHH: B1 VHH with G26W, A27D, K30Q, I31L, R100K
B37: T017000415 (VHH)
VHH: B1 VHH with G26W, A27D, K30Q
B38: T017000418 (VHH)
VHH: B1 VHH with I31L, W102Y
B39: T017000419 (VHH)
VHH: B1 VHH with I31L
B40: T017000423 (VHH)
VHH: B1 VHH with A27S, K30Q, Y34L
B41: T017000432 (VHH)
VHH: B1 VHH with A27S, I31L, R100K
B42: T017000434 (VHH)
VHH: B1 VHH with A27S, I31L, W102Y
B43: T017000440 (VHH)
VHH: B1 VHH with G26W, A27D, I31L, R100K
B44: T017000442 (VHH)
VHH: B1 VHH with A27Y, I31L, W102Y
B45: T017000443 (VHH)
VHH: B1 VHH with G26W, A27D, K30Q, R100K, W102Y

Target: T1, Cynomolgus …
Assay: SPR ProteOn off-rate screen
From the text: Unique ISVD clones, i.e. clones with a unique sequence, were subsequently selected and screened to determine their off-rate. To this purpose, the ISVD containing periplasmic extracts were screened on huTCR-zipper and cyTCR-zipper protein by SPR on a ProteOn XPR36 instrument. The zipper proteins were immobilized on a GLC sensor chip (between 4300 and 5100RU) via amine coupling chemistry, using EDC/sulfo-NHS for activation of the carboxyl groups on the chip surface (running buffer: HBS-EP+, pH7.4). Periplasmic extracts were injected at 1/10 dilution for 2 min (at a flow rate of 45 μL/min) and dissociation was followed for 900 s. A pulse of 100 s of 3 M MgCl2 at 45 μL/min was used for regeneration. […] Processed sensorgrams were fitted with the Langmuir model (1:1 interaction) using ProteOn Manager 3.1.0 (Version 3.1.0.6) software.

Going from B1 to B2, the koff rises from 0.000875 s⁻¹ to 0.00145 s⁻¹ (1.7-fold).

First: B3
Second: B4
The koff of the first is 2.8-fold lower: 0.00089 s⁻¹ for the first, 0.00251 s⁻¹ for the second.

First: B5
Second: B6
The koff of the first is 6.1-fold lower: 0.000401 s⁻¹ for the first, 0.00243 s⁻¹ for the second.

First: B7
Second: B8
The koff of the first is 1.7-fold higher: 0.000982 s⁻¹ for the first, 0.000577 s⁻¹ for the second.

Going from B9 to B10, the koff rises from 0.00127 s⁻¹ to 0.0026 s⁻¹ (2-fold).

Compared with B11, B12 is 1.8-fold lower in koff: 0.00201 s⁻¹ for the first, 0.0011 s⁻¹ for the second.

B13 and B14 are within 1.5-fold of each other in koff: 0.00129 s⁻¹ for the first, 0.00155 s⁻¹ for the second.

Going from B15 to B16, the koff falls from 0.00215 s⁻¹ to 0.000612 s⁻¹ (3.5-fold).

B17 and B18 are within 1.5-fold of each other in koff: 0.00122 s⁻¹ for the first, 0.000913 s⁻¹ for the second.

First: B19
Second: B20
The koff of the first is 4.1-fold lower: 0.000523 s⁻¹ for the first, 0.00214 s⁻¹ for the second.

Compared with B21, B22 is 1.6-fold lower in koff: 0.000249 s⁻¹ for the first, 0.000152 s⁻¹ for the second.

B23 and B24 are within 1.5-fold of each other in koff: 0.00216 s⁻¹ for the first, 0.00289 s⁻¹ for the second.

Compared with B25, B26 is 1.9-fold lower in koff: 0.00383 s⁻¹ for the first, 0.00206 s⁻¹ for the second.

First: B27
Second: B28
The koff of the first is 1.5-fold lower: 0.00161 s⁻¹ for the first, 0.00245 s⁻¹ for the second.

B29 and B30 are within 1.5-fold of each other in koff: 0.00263 s⁻¹ for the first, 0.00183 s⁻¹ for the second.

B31 and B32 are within 1.5-fold of each other in koff: 0.00152 s⁻¹ for the first, 0.00138 s⁻¹ for the second.

First: B33
Second: B34
The koff of the first is 2.2-fold lower: 0.000714 s⁻¹ for the first, 0.00159 s⁻¹ for the second.

Going from B35 to B36, the koff falls from 0.00156 s⁻¹ to 0.000238 s⁻¹ (6.6-fold).

Going from B37 to B38, the koff rises from 0.000918 s⁻¹ to 0.00187 s⁻¹ (2-fold).

Going from B39 to B40, the koff rises from 0.0011 s⁻¹ to 0.00184 s⁻¹ (1.7-fold).

Going from B41 to B42, the koff rises from 0.000142 s⁻¹ to 0.00153 s⁻¹ (11-fold).

Compared with B43, B44 is 4.2-fold higher in koff: 0.000346 s⁻¹ for the first, 0.00146 s⁻¹ for the second.

In the case of B45, the koff is reported as 0.000209 s⁻¹.
